In article PMC3958310:

Target: DENV1 envelope (E) protein, strain Western Pacific 74, on the virus surface (dengue virus serotype 1, strain Western Pacific 74)

B1: Fab fragment of HMAb 1F4 (Fab, V domains shown)
VH: QVQLVESGGGVVQPGRSLRLSCAASGFTFSAYGMHWVRQAPGKGLEWVAIIWYDGSNKYYADSVKGRFTISRDNSKNTLHLQMNSLRAEDTAIYYCARDKNPGTKPYYHYGMDVWGQGTTVTVSS
VL: QSVLTQPPSVSEAPRQRVTISCSGSSSNIGNNAVNWYQQFPGKAPKLLIYYDDLLPSGVSDRFSGSKSGTSASLAISGLQSEDEAYYYCAAWDDSLIGVVFGGGTKLTVL
Work on B1 yielded a neutralisation of DENV1 (Western Pacific 74) in U937 cells expressing DC-SIGN, flow cytometry, Neut50 of 0.11 µg/mL.
